The values that follow come from publication PMC8219380, “The discriminatory power of the T cell receptor” (eLife, 2021).

In one assay the test system is IFNAR1 and IFNAR2. Put plainly: Discrimination power from published data: type I IFN receptor. Conditions: n 13, ref Thomas C. 2011. An excerpt: (§1) The broad method was to obtain a measure of ligand potency from each study. […] If not explicitly provided, we estimated ligand potency as PX , which was defined by the concentration of ligand that produced X response. To do this, we drew a horizontal line at X on a provided dose-response graph and estimated the ligand concentration where the data intercepted the horizontal line. The disadvantage with this method is that ligand potency was estimated based on the single representative graph provided in the study.
(§2) Each study often contained or cited a study that contained estimates of KD or koff for the specific TCR/pMHC interactions used in the study. We only included studies where monomeric SPR binding data was available to avoid multimeric binding parameters (e.g. when using tetramers). However, when analysing discrimination by other non-TCR receptors, we included binding data from various methods (e.g. SPR, radio labelled ligands) provided they were monomeric measurements. The use of SPR is important for weak interactions, such as TCR/pMHC, but various methods are available for higher-affinity interactions.
(§3) The plot of potency over KD or k off was fit using linear regression on log-transformed axes. We reported the slope of the fit (i.e. the discrimination power, α), the goodness-of-fit measure ( R^2 ), and the p-value for the null hypothesis that the slope is zero (i.e. α=0 ). […]

Another assay deals with c-Kit. The experiment in a line: Discrimination power from published data: c-Kit. Conditions: n 4, ref Ho 2017.
Source text: as §1, §2, §3

Another assay relates to ErbB2. Put plainly: Discrimination power from published data: ErbB2 CARs. Conditions: n 4, ref Liu 2015.
Source text: as §1, §2, §3

For a further assay, the system named is M3 muscarinic receptor. The experiment in a line: Discrimination power from published data: M3 receptor. Conditions: n 7, ref Sykes 2009.
Source text: as §1, §2, §3

A further assay has as its system IL-13Ra1. Put plainly: Discrimination power from published data: IL-13 receptor. Conditions: ref Moraga 2015.
Source text: as §1, §2
(§4) The plot of potency over KD or k off was fit using linear regression on log-transformed axes. We reported the slope of the fit (i.e. the discrimination power, α), the goodness-of-fit measure ( R^2 ), and the p-value for the null hypothesis that the slope is zero (i.e. α=0 ). We defined significance using the threshold of p=0.05.
Cytokine receptors transduce signals by ligand-induced dimerisation of receptor subunits. We identified five studies that produced ligands with mutations that modified binding to either one or both receptor subunits and either reported potency or provided dose-response curves from which potency can be extracted ([Levin et al., 2012]; [Moraga et al., 2015]; [Thomas et al., 2011a]; [Mendoza et al., 2017]; [Martinez-Fabregas et al., 2019]). […] By measuring cellular responses, such as upregulation of CD86 on monocytes, dose-response curves were generated for each IL-13 variant, allowing us to determine ligand potency. We observed a significant correlation between potency and KD (Figure 6A). We repeated the analysis for each study (Figure 6—source data 1 ID 1–13). In studies that included ligands with mutations to both receptor interfaces, we plotted potency over the product of the dissociation constants to each interface since this serves as an estimate of the overall affinity (i.e. KD1×KD2 ).

The test system of a further assay is gp130. The experiment in a line: Discrimination power from published data: IL-6 receptor. Conditions: ns, ref Martinez-Fabregas 2019.
Source text: as §1, §2, §3

A further assay concerns CXC chemokine receptor 3. The experiment in a line: Discrimination power from published data: CXCR3. Conditions: ref Heise 2005.
Source text: as §1, §2, §4
Therefore, ligand affinity may not correlate to functional potency. Instead, we focused on identifying studies that used ligands that were confirmed to bind to the same interface with different affinities. As an example, Sykes et al. used seven agonists to the muscarinic M3 receptor and confirmed they all bound to the same interface using a binding competition assay ([Sykes et al., 2009]). Using titrations of each ligand, they examined the binding of GTPγS to CHO-M3 membrane as a measure of response (Figure 6C, left). […]

As for IFNAR1/IFNAR2, the “Power (discrimination power)” value worked out at 0.7137 in the assay on IFNAR1 and IFNAR2 (ID 7, output antiviral); 1.329 in the assay on IFNAR1 and IFNAR2 (ID 8, output antiproliferation).
“c-Kit: receptor tyrosine kinase activated by SCF”: the “Power (discrimination power)” value in the assay on c-Kit (ID 15, output pERK) was 0.834; in the assay with c-Kit (ID 16, output pAKT), 0.882.
For the molecule ErB2, the “Power (discrimination power)” value is 1.058 in the assay on ErbB2 (ID 26, output CD107) and 0.6409 in the assay with ErbB2 (ID 27, output Proliferation, ns).
“M3 muscarinic receptor: M3 muscarinic receptor, set of agonists”: the “Power (discrimination power)” value amounted to 0.7717 with M3 muscarinic receptor (ID 19, output Calcium, ns) and 0.5478 with M3 muscarinic receptor (ID 20, output GTPyS Binding).

B1: IL-13Rα2 (protein, UniProt Q14627 27-380, looked up)
Interleukin-13 receptor …: DTEIKVNPPQDFEIVDPGYLGYLYLQWQPPLSLDHFKECTVEYELKYRNIGSETWKTIITKNLHYKDGFDLNKGIEAKIHTLLPWQCTNGSEVQSSWAETTYWISPQGIPETKVQDMDCVYYNWQYLLCSWKPGIGVLLDTNYNLFYWYEGLDHALQCVDYIKADGQNIGCRFPYLEASDYKDFYICVNGSSENKPIRSSYFTFQLQNIVKPLPPVYLTFTRESSCEIKLKWSIPLGPIPARCFDYEIEIREDDTTLVTATVENETYTLKTTNETRQLCFVVRSKVNIYCSDDGIWSEWSDKQCWEGEDLSKKTLLRFWLPFGFILILVIFVTGLLLRKPNTYPKMIPEFFCDT
Consider B1, for which the “Power (discrimination power)” value in the assay with IL-13Ra1 (ID 4, output Proliferation, n 9, ns) amounted to 0.394; with IL-13Ra1 (ID 5, output CD86), 0.442.

B2: gp130 (and IL6R alpha) (protein, UniProt P40189 23-918; P08887 20-468, looked up)
Interleukin-6 receptor … 1: ELLDPCGYISPESPVVQLHSNFTAVCVLKEKCMDYFHVNANYIVWKTNHFTIPKEQYTIINRTASSVTFTDIASLNIQLTCNILTFGQLEQNVYGITIISGLPPEKPKNLSCIVNEGKKMRCEWDGGRETHLETNFTLKSEWATHKFADCKAKRDTPTSCTVDYSTVYFVNIEVWVEAENALGKVTSDHINFDPVYKVKPNPPHNLSVINSEELSSILKLTWTNPSIKSVIILKYNIQYRTKDASTWSQIPPEDTASTRSSFTVQDLKPFTEYVFRIRCMKEDGKGYWSDWSEEASGITYEDRPSKAPSFWYKIDPSHTQGYRTVQLVWKTLPPFEANGKILDYEVTLTRWKSHLQNYTVNATKLTVNLTNDRYLATLTVRNLVGKSDAAVLTIPACDFQATHPVMDLKAFPKDNMLWVEWTTPRESVKKYILEWCVLSDKAPCITDWQQEDGTVHRTYLRGNLAESKCYLITVTPVYADGPGSPESIKAYLKQAPPSKGPTVRTKKVGKNEAVLEWDQLPVDVQNGFIRNYTIFYRTIIGNETAVNVDSSHTEYTLSSLTSDTLYMVRMAAYTDEGGKDGPEFTFTTPKFAQGEIEAIVVPVCLAFLLTTLLGVLFCFNKRDLIKKHIWPNVPDPSKSHIAQWSPHTPPRHNFNSKDQMYSDGNFTDVSVVEIEANDKKPFPEDLKSLDLFKKEKINTEGHSSGIGGSSCMSSSRPSISSSDENESSQNTSSTVQYSTVVHSGYRHQVPSVQVFSRSESTQPLLDSEERPEDLQLVDHVDGGDGILPRQQYFKQNCSQHESSPDISHFERSKQVSSVNEEDFVRLKQQISDHISQSCGSGQMKMFQEVSAADAFGPGTEGQVERFETVGMEAATDEGMPKSYLPQTVRQGGYMPQ
Interleukin-6 receptor … 2: LAPRRCPAQEVARGVLTSLPGDSVTLTCPGVEPEDNATVHWVLRKPAAGSHPSRWAGMGRRLLLRSVQLHDSGNYSCYRAGRPAGTVHLLVDVPPEEPQLSCFRKSPLSNVVCEWGPRSTPSLTTKAVLLVRKFQNSPAEDFQEPCQYSQESQKFSCQLAVPEGDSSFYIVSMCVASSVGSKFSKTQTFQGCGILQPDPPANITVTAVARNPRWLSVTWQDPHSWNSSFYRLRFELRYRAERSKTFTTWMVKDLQHHCVIHDAWSGLRHVVQLRAQEEFGQGEWSEWSPEAMGTPWTESRSPPAENEVSTPMQALTTNKDDDNILFRDSANATSLPVQDSSSVPLPTFLVAGGSLAFGTLLCIAIVLRFKKTWKLRALKEGKTSMHPPYSLGQLVPERPRPTPVLVPLISPPVSPSSLGSDNTSSHNRPDARDPRSPYDISNTDYFFPR
On to B2, for which the “Power (discrimination power)” value with gp130 (ID 12, output pSTAT1, n 3) stood at 0.5438; in the assay with gp130 (ID 13, output pSTAT3, n 4) it was 0.5194.

B3: CXC chemokine receptor 3: CXCR3 with chemokine ligands (protein, UniProt P49682 1-368, looked up)
C-X-C chemokine receptor type …: MVLEVSDHQVLNDAEVAALLENFSSSYDYGENESDSCCTSPPCPQDFSLNFDRAFLPALYSLLFLLGLLGNGAVAAVLLSRRTALSSTDTFLLHLAVADTLLVLTLPLWAVDAAVQWVFGSGLCKVAGALFNINFYAGALLLACISFDRYLNIVHATQLYRRGPPARVTLTCLAVWGLCLLFALPDFIFLSAHHDERLNATHCQYNFPQVGRTALRVLQLVAGFLLPLLVMAYCYAHILAVLLVSRGQRRLRAMRLVVVVVVAFALCWTPYHLVVLVDILMDLGALARNCGRESRVDVAKSVTSGLGYMHCCLNPLLYAFVGVKFRERMWMLLLRLGCPNQRGLQRQPSSSRRDSSWSETSEASYSGL
As for B3, the “Power (discrimination power)” value in the assay with CXC chemokine receptor 3 (ID 22, output Calcium mobilization, n 3) was 0.7346; in the assay on CXC chemokine receptor 3 (ID 23, output GTP gamma S Binding, n 3), 1.056; in the assay on CXC chemokine receptor 3 (ID 24, output Migrated Cells, n 2, ns, Perfect line) it was 0.5609.

B4: IL-13Rα1 (protein, UniProt P78552 22-427, looked up)
Interleukin-13 receptor …: GGGGAAPTETQPPVTNLSVSVENLCTVIWTWNPPEGASSNCSLWYFSHFGDKQDKKIAPETRRSIEVPLNERICLQVGSQCSTNESEKPSILVEKCISPPEGDPESAVTELQCIWHNLSYMKCSWLPGRNTSPDTNYTLYYWHRSLEKIHQCENIFREGQYFGCSFDLTKVKDSSFEQHSVQIMVKDNAGKIKPSFNIVPLTSRVKPDPPHIKNLSFHNDDLYVQWENPQNFISRCLFYEVEVNNSQTETHNVFYVQEAKCENPEFERNVENTSCFMVPGVLPDTLNTVRIRVKTNKLCYEDDKLWSNWSQEMSIGKKRNSTLYITMLLIVPVIVAGAIIVLLLYLKRLKIIIFPPIPDPGKIFKEMFGDQNDDTLHWKKYDIYEKQTKEETDSVVLIENLKKASQ
As to B4, the “Power (discrimination power)” value with IL-13Ra1 (ID 3, output pSTAT6, n 9) is listed as 0.471; in the assay with IL-13Ra1 (ID 6, output CD205, n 9), 0.421.
